# Experimental data as given in publication PMC4838544 (Gene, 2016).
# T1: E. coli topoisomerase I with a N-terminus 6x-His tag (E. coli, UniProt P06612 1-865)
# T1 sequence (looked up): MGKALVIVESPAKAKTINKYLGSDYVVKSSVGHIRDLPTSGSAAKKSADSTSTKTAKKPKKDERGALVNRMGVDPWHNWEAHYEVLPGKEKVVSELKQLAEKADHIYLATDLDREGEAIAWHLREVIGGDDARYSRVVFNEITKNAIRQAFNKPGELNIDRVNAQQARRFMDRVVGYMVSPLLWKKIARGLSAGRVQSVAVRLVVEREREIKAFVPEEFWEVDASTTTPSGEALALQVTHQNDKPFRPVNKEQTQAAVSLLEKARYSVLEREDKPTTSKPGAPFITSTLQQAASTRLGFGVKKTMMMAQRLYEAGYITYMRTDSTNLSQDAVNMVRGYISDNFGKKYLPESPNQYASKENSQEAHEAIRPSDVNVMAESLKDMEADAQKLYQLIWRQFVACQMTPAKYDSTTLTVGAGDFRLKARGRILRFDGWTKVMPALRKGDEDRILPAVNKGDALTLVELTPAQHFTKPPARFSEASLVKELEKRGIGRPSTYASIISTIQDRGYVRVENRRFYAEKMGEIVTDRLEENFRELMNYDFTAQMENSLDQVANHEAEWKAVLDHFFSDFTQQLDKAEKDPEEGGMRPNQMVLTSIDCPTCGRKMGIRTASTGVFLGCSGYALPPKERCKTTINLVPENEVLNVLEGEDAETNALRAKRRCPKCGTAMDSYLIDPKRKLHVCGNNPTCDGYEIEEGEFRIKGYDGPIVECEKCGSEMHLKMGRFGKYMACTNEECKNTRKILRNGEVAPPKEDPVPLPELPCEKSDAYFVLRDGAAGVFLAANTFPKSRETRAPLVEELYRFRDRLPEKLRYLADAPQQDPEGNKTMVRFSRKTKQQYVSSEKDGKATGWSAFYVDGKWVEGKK
# B1: Purified E. coli RecA (natural protein)
# chain: AIDENKQKALAAALGQIEKQFGKGSIMRLGEDRSMDVETISTGSLSLDIALGAGGLPMGRIVEIYGPESSGKTTLTLQVIAAAQREGKTCAFIDAEHALDPIYARKLGVDIDNLLCSQPDTGEQALEICDALARSGAVDVIVVDSVAALTPKAEIEGEIGDSHMGLAARMMSQAMRKLAGNLKQSNTLLIFINQIRMKIGVMFGNPETTTGGNALKFYASVRLDIRRIGAVKEGENVVGSETRVKVVKNKIAAPFKQAEFQILYGEGINFYGELVDLGVKEKLIEKAGAWYSYKGEKIGQGKANATAWLKDNPETAKEIEKKVRELLLSNPNSTPDFSVDDSEGVAETNEDF
# Target: T1, E. coli topoisomerase I with a …
# Assay: pull-down
binder,measurement,value
B1,binding result,binds
